The values that follow are results of earlier work, collected in PMC6478893.

As a reminder, the pKa is the negative logarithm of the acid dissociation constant.

The target of the series is Glu73 (UniProt position 86, GLTFTEKWNTD).

For the substance “Voltage-dependent anion channel 1 (VDAC1) (Mus musculus (inferred from the title of ref. 51, 'mVDAC1'; the article text says only 'VDAC1'))”, the pKa was about 7.4.
